Experimental data taken from patent US6462173B1, “Inhibitors of phosphoserine and phosphothreonine-proline-specific isomerases” (Max-Planck-Gesellschaft zur Forderung der, priority 1997, dated 2002).

B1: Cdc25: mitotic phosphoprotein, phosphatase; Xenopus Cdc25 clone translated in vitro (protein)
chain: STELFSSTREEGSSGSGPSFRSNQRKMLNLLLERDTSFTVCPDVPRTPVGKFLGDSANLSILSGGTPKRCLDLSNLSSGEITATQLTTSADLDETGHLDSSGLQEVHLAGMNHDQHLMKCSPAQLLCSTPNGLDRGHRKRDAMCSSSANKENDNGNLVDSEMKYLGSPITTVPKLDKNPNLGEDQAEEISDELMEFSLKDQEAKVSRSGLYRSPSMPENLNRPRLKQVEKFKDNTIPDKVKKKYFSGQGKLRKGLCLKKTVSLCDITITQMLEEDSNQGHLIGDFSKVCALPTVSGKHQDLKYVNPETVAALLSGKFQGLIEKFYVIDCRYPYEYLGGHIQGALNLYSQEELFNFFLKKPIVPLDTQKRIIIVFHCEFSSERGPRMCRCLREEDRSLNQYPALYYPELYILKGGYRDFFPEYMELCEPQSYCPMHHQDHKTELLRCRSQSKVQEGERQLREQIALLVKDMSP
B2: Plx1: mitotic phosphoprotein (protein)
chain: MAQVAGKKLTVAPEAAKPPGIPGSSSAVKEIPEILVDPRTRRRYLRGRFLGKGGFAKCYEITDLESREVFAGKIVPKTMLLKPHQKDKMTMEIAIQRSLDHRHVVGFHGFFEDNDFVYVVLELCRRRSLLELHKRRKAVTEPEARYYLKQTISGCQYLHSNRVIHRDLKLGNLFLNDEMEVKIGDFGLATKVEYDGERKKTLCGTPNYIAPEVLGKKGHSFEVDIWSIGCIMYTLLVGKPPFETSCLKETYMRIKKNEYSIPKHINPVAAALIQKMLRSDPTSRPTIDDLLNDEFFTSGYIPSRLPTTCLTVPPRFSIAPSTIDQSLRKPLTAINKGQDSPLVEKQVAPAKEEEMQQPEFTEPADCYLSEMLQQLTCLNAVKPSERALIRQEEAEDPASIPIFWISKWVDYSDKYGLGYQLCDNSVGVLFNDSTRLIMYNDGDSLQYIERNNTESYLNVRSYPTTLTKKITLLKYFRNYMSEHLLKAGANTTPREGDELARLPFLRTWFRTRSAIILHLSNGTVQINFFQDHTKIILCPLMAAVSYIDEKREFRTYKLSLIQEFGCCKELASRLRYARTMVEKLQSSKSAVAHVKASA
B3: Mos: mitotic phosphoprotein, Xenopus Mos clone (protein)
chain: MPSPIPVERFLPRDLSPSIDLRPCSSPLELSHRKLPGGLPACSGRPRLLPPRLAWCSIDWEQVLLLEPLGSGGFGSVYRATYRGETVALKKVKRSTKNSLASRQSFWAELNAARLRHPHVVRVVAASASCPGDPGCPGTIIMEYTGTGTLHQRIYGRSPPLGAEICMRYARHVADGLRFLHRDGVVHLDLKPANVLLAPGDLCKIGDFGCSQRLREGDEAAGGEPCCTQLRHVGGTYTHRAPELLKGEPVTAKADIYSFAITLWQMVSRELPYTGDRQCVLYAVVAYDLRPEMGPLFSHTEEGRAARTIVQSCWAARPQERPNAEQLLERLEQECAMCTGGPPSCSPESNAPPPLGTGL
B4: NIMA: mitotic phosphoprotein, kinase (protein)
chain: MAIALAEADKYEVLEKIGCGSFGIIRKVKRKSDGFILCRKEINYIKMSTKEREQLTAEFNILSSLRHPNIVAYYHREHLKASQDLYLYMEYCGGGDLSMVIKNLKRTNKYAEEDFVWRILSQLVTALYRCHYGTDPAEVGSNLLGPAPKPSGLKGKQAQMTILHRDLKPENIFLGSDNTVKLGDFGLSKLMHSHDFASTYVGTPFYMSPEICAAEKYTLRSDIWAVGCIMYELCQREPPFNARTHIQLVQKIREGKFAPLPDFYSSELKNVIASCLRVNPDHRPDTATLINTPVIRLMRREVELNNLSRAARKREEATMQKAKDVEQAFAKLEKEKQQIRSELENSIRREWEVKARLEIDRQVQNELDKLRKRFECEVQDRVAQEVEKQRRNANYREDASLRSSGHSSQMSSSNSEDSDFPSSTDISQLSLESPTNKAAKLPKKESRTPFTRSKTVVDSPMDIQMAEPSPISIASLSLSPRRTSATYSGKNIFAEGERKRPKFEPTLAYSDDEDDTPELPSPTRPKVKPDPFKAPSRPLLRQNTTALMQKLSTQPPIFPANPSRLPQMSAPDVRESKSRSPHRRLSKIPSSANLAADAGSPTRKNGVKSSPSKMNGGDEMFKAVMQRNMGGRTLVELAQARAGGRPIDEVKRCASDSRSGCSVPMKSADRDPPAVWDPERDEMPSPFLARGRKVIRNLR
B5: E-MAP-115: cytoskeletal/spindle protein, predicted Pin1 substrate (protein, UniProt Q14244 2-749, looked up)
Ensconsin: AELGAGGDGHRGGDGAVRSETAPDSYKVQDKKNASSRPASAISGQNNNHSGNKPDPPPVLRVDDRQRLARERREEREKQLAAREIVWLEREERARQHYEKHLEERKKRLEEQRQKEERRRAAVEEKRRQRLEEDKERHEAVVRRTMERSQKPKQKHNRWSWGGSLHGSPSIHSADPDRRSVSTMNLSKYVDPVISKRLSSSSATLLNSPDRARRLQLSPWESSVVNRLLTPTHSFLARSKSTAALSGEAASCSPIIMPYKAAHSRNSMDRPKLFVTPPEGSSRRRIIHGTASYKKERERENVLFLTSGTRRAVSPSNPKARQPARSRLWLPSKSLPHLPGTPRPTSSLPPGSVKAAPAQVRPPSPGNIRPVKREVKVEPEKKDPEKEPQKVANEPSLKGRAPLVKVEEATVEERTPAEPEVGPAAPAMAPAPASAPAPASAPAPAPVPTPAMVSAPSSTVNASASVKTSAGTTDPEEATRLLAEKRRLAREQREKEERERREQEELERQKREELAQRVAEERTTRREEESRRLEAEQAREKEEQLQRQAEERALREREEAERAQRQKEEEARVREEAERVRQEREKHFQREEQERLERKKRLEEIMKRTRRTEATDKKTSDQRNGDIAKGALTGGTEVSALPCTTNAPGNGKPVGSPHVVTSHQSKVTVESTPDLEKQPNENGVSVQNENFEEIINLPIGSKPSRLDVTNSESPEIPLNPILAFDDEGTLGPLPQVDGVQTQQTAEVI
B6: Splicing factor SC35: nuclear/splicing protein, predicted Pin1 substrate (protein, UniProt Q01130 2-221, looked up)
Serine/arginine-rich splicing …: SYGRPPPDVEGMTSLKVDNLTYRTSPDTLRRVFEKYGRVGDVYIPRDRYTKESRGFAFVRFHDKRDAEDAMDAMDGAVLDGRELRVQMARYGRPPDSHHSRRGPPPRRYGGGGYGRRSRSPRRRRRSRSRSRSRSRSRSRSRYSRSKSRSRTRSRSRSTSKSRSARRSKSKSSSVSRSRSRSRSRSRSRSPPPVSKRESKSRSRSKSPPKSPEEEGAVSS

What was measured:
Pin1 [1] = biological target: T1, Pin1 (Homo sapiens, UniProt Q13526); experiment: Pin1 precipitation from interphase and mitotic HeLa extracts probed with antibodies to known mitotic phosphoproteins; format: binding
T1 construct: fusion protein containing full length Pin1 was bacterially expressed, purified; made in house
Protocol: (§1) To detect Pin1-binding proteins, either HeLa cells were lysed in or Xenopus extracts were diluted in a buffer (buffer A) containing 50 mM Tris-HCl, pH 8.0, 200 mM NaCl, 100 mM NaF, 1 mM sodium orthovanadate, 10% glycerol, 1% Triton X100, 10 μg/ml aprotinin, 50 μg/ml phenylmethylsulfonyl fluoride and 1 mM DTT. The lysates were preclarified with boiled S. aureus bacteria (CalBiochem) and then incubated with 10 μl of agarose beads containing various GST-Pin1 proteins or control GST for 2 h at 4° C. The precipitated proteins were washed 5 times in the same buffer and subjected to immunoblotting analysis. Immunoprecipitation and immunoblotting analysis using MPM-2 antibody (Davis et al. 1983), which was kindly provided by J. Kuang, Pin1 antibodies (Lu et al., 1996, kindly provided by M. White or newly generated), anti-phospho.Tyr antibody (UBI), anti-Cdc25C (Ogg, et al., 1994) (from H. Piwnica-Worms and Santa Cruz Biotechnology), anti-Cdc27, anti-Plk1 (Zymed), anti-Cdc2 (Solomon, M. J., M. Glotzer, T. H. Lee, M. Philippe and M. W. Kirschner. Cell 63:1013-1024 (1991), anti-human Myt1, anti-human cyclin B1 and anti-Xenopus cyclin B were performed, as described previously in Lu and Hunter, 1995; Lu et al., 1996).
Several known mitotic regulators such as cyclin B, Cdc25, Myt1, Plk1 and Cdc27 are phosphorylated at mitosis. To identify at least a few of the many Pin1 binding proteins, Pin1-binding proteins were precipitated from HeLa cells, or Xenopus extracts and probed with antibodies specific for known mitotic phosphoproteins. As shown previously, levels of Plk1 and cyclin B1 increased at mitosis, whereas similar amounts of Cdc25C were present in interphase and mitotic HeLa cells. […] Similarly, only the mitotic, but not the interphase form of Xenopus Cdc27 was precipitated by Pin1.

Pin1 [2] = biological target: T1, Pin1; experiment: Precipitation with GST-Pin1 beads of synthesized phosphoproteins incubated with interphase and mitotic Xenopus extracts; format: binding; set-up: key: +: a week but above background interaction; ++: readily detectable interaction; +++: strong interaction; conditions: for Interaction with Pin1, Mitotic: mitotic Xenopus extracts
Protocol: The binding between Pin1 and all selected mitotic phosphoproteins was assayed by incubating synthesized proteins with interphase and mitotic Xenopus extracts, followed by precipitation with GST-Pin1beads. The Pin1 interactions with those proteins indicated with * were also confirmed by GST-Pin1 pull-down assay from endogenous interphase and mitotic HeLa cell extracts. +, a week but above background interaction; ++, readily detectable interaction; +++, strong interaction.
The mitotic phosphoproteins were translated in vitro using the TNT coupled transcription/translation kit (Promega) in a total volume of 10 μl in the presence of 8 μCi [^35S]methionine (1000 Ci/mmol) for 2 h at 30° C. They were then incubated in xenopus interphase and mitotic extracts as described (Stukenberg et al., 1997). These incubated clones were precipitated by Pin1 beads as described below. The Xenopus Mos and Weel clones were a kind gift of M. Murakami, G, F. Woude and J. Cooper; the Xenopus Cdc25 clone was a generous gift of W. Dunphy, T3 and T3S2 Cdc25 mutants were kindly provided by J. Maller (Izumi and Maller, 1993).
as §1
To gain a sense of the generality of the interaction between Pin1 and mitotic phosphoproteins and to confirm the Pin1 interaction with target proteins is indeed mediated by phosphorylation, the ability of Pin1 to bind other known mitotic phosphoproteins and a set of mitotic phosphoproteins identified by a systematic phosphoprotein screen (Stukenberg et al., Curr Biol 7:338-348 (1997). Proteins synthesized in vitro were phosphorylated in a cell cycle specific manner by incubating them in either Xenopus interphace or mitotic extracts. These labeled protein were subsequently incubated with GST-Pin1 beads that were extensively washed and the bound proteins analyzed by SDS-PAGE. To validate this method, Cdc25 was first tested. Again, the mitotically phosphorylated form of in vitro translated Cdc25 could be precipitated by GST-Pin1 beads. However, Cdc25 was not recognized by Pin1 if it was incubated in interphase extracts. […] Out of the 13 mitotic phosphoproteins examined, Pin1 bound 10 in a mitosis and phosphorylation-dependent manner (summarized in Table 1), including Weel, MP75 and MP110, MP75 and MP110 are Xenopus proteins related to microtubule-associated protein E-MAP-115 and the fission yeast G2 transcription factor Cdc5, respectively.

Pin1 [3] = biological target: T1, Pin1; experiment: Confirmation of interaction between Pin1 and predicted Pin1 substrates; conditions: Pin1 binding confirmed in vitro (SC35 inferred from colocalization)
Protocol: On the basis of amino acid preferences deduced in the 6 positions surrounding the pS-P motif for optimal Pin1 binding, a weighted screening of the SWISS-PROT sequence database. Protein sequence database screening was performed with the program INDOVINATOR, using an entropy-based weighing technique to score for relative information content at each amino acid position flanking the pS/pT-P motif with the quantitative peptide library results, which are shown qualitatively in Table 3. […] Many of these proteins are involved in regulation of the cell cycle, cytoskeletal/spindle structure, DNA replication, transcription or RNA processing (Table 4).
Several of these predicted proteins, such as Rab4, Cdc25 and NIMA, undergo mitosis-specific phosphorylation (R. Heald and F. McKeon, Cell 61:579 (1990); E. Bailly, et al., Nature 350:715 (1991); A. Blangy, et al., Cell 83:1159 (1995): J. Kuang, et al., Mol. Biol. Cell 5:135 (1994); X. S. Ye, et al., EMBO J. 14:986 (1995)). Cdc25 and NIMA also binds to Pin1 in a phosphorylation-dependent manner, as described herein. Other proteins identified in this search, however, had not been previously suspected of interacting with Pin1; therefore, a few were further investigated as example cases. […] Thus, Pin1 binds a wide functional range of mitotic phosphoproteins.

T1 sequence (Q13526 whole entry, the tested form may be a part): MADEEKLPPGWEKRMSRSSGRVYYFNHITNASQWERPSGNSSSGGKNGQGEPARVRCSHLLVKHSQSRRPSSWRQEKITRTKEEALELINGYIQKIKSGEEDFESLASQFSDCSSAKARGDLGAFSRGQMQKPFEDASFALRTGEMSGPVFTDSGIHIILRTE

| Molecule | Interaction with Pin1, Mitotic (Pin1 [2]) | Binding Confirmed (Pin1 [3]) | other results |
| --- | --- | --- | --- |
| PTP-1B: protein hyperphosphorylated during mitosis | – | – | precipitation by Pin1 (Pin1 [1]): not precipitated by Pin1 in either interphase or mitotic extracts |
| B1 | +++ | – | – |
| B2 | +++ | – | – |
| B3 | ++ | – | Interaction with Pin1, Interphase (Pin1 [2]; interphase Xenopus extracts): + |
| B4 | +++ | Yes | – |
| B5 | – | Yes | – |
| B6 | – | Yes | – |
